System: MS2 coat protein
Experiment: apparent KD of MS2 coat protein; higher = weaker reporter binding
Conditions: Eterna round: R107
Summary of the method: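 Designed RNA switches were transcribed on-chip from Illumina sequencing clusters. SNAP-549-labelled MS2 coat protein was titrated onto them in twofold steps from 0.7 or 1.5 nM to 3 µM in 100 mM Tris-HCl pH 7.5, 80 mM KCl, 4 mM MgCl2, either without or with constant ligand. Apparent KD reflects the per-design median of normalised cluster binding-curve fits.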

[1] = input ligand: theophylline 20 uM
[2] = input ligand: theophylline 2 mM
[3] = input ligand: tryptophan 2.4 mM

Row | Sequence | apparent KD of MS2 coat protein (input ligand: arginine 13.2 mM) [nM] | apparent KD of MS2 coat protein [1] [nM] | apparent KD of MS2 coat protein [2] [nM] | apparent KD of MS2 coat protein (input ligand: none) [nM] | apparent KD of MS2 coat protein [3] [nM]
1 | CCGCACAUGAGGAUCACCCAUGUCCGGGUUCGAGGACCGGUACGGCCGCCACUCGGACAUGUGCGCCCUUCAUGCACUGUAUAAA [Macetius] | 38.9 | 158 | 239 | – | –
2 | CCGCCUGCCUCACAUGAGGAUCACCCAUGUCGAGGACCGGUACGGCCGCCACUCGUCGUCGGUAAUACAGGCAUUGAAUAAUAUA [Vetire] | 12.1 | 14.8 | 12.1 | – | –
3 | CCGGCAUGUCGAAGGAGCGUCACAUGAGGAUCACCCAUGUACAUGAGGAUCACCCAUGUGUGACAGGUAGGUCGCGGCGGCCAGG [Exclusion Arginine B GF7] | 108 | 178 | 197 | 140 | 158
4 | CCGGGCCCGGGAGACCGGGCCCGGACUGAAGGAGCGGGAAUAAACCCAGGUAGGUCGCAGAGAUCCACAUGAGGAUCACCCAUGU [!0.U] | 133 | 51.7 | 36.5 | 54.5 | 36.8
5 | CCGGUUAGGACGGCCGCCACUGUGGCUACGGUACAUGAGGAUCACCCAUGUUUGUGGUUGAUCUACAGGACCGGGUCCUGACACG [Eronri] | 124 | 1210 | 806 | 247 | 247
6 | CCUAUGCAGUCGGCCGCCACUGAAAACAGCCUCAAAAUAAAUAUAACAUGAGGAUCACCCAUGUACAGGACCGGGACUGUAUAGG [Ex Tryptophan B 11] | 81 | 200 | 180 | – | –
7 | CCUAUGCAGUCGGCCGCCACUGUACAUGAGGAUCACCCAUGUUCCAAAAUAAAAGGAACUGAAAUCAGGACCGGGACUGUAUAGG [Ex Tryptophan B 1] | 29.4 | 37.2 | 39 | 33.3 | 32.6
8 | CCUCAAUCGUCGGCCGCCACUGGAUCAUGCGGAUACAUGAGGAUCACCCAUGUGGGUGUGGUACGCAGGACCGGGACAAGACCCG [#15 Same State - Tryptophan B] | 164 | 579 | 1030 | – | –
9 | CCUGCGUUUCUUUUCUUUCGCAGGAAUGAUACCAGUAGGGAAACCUACCCUUGGCAGCAUGGGUAACAUGAGGAUCACCCAUGUU [SSThA NP+V+V2 #5 Same Structure] | 93.2 | 392 | – | – | 343
10 | CGAAAGCAGUGAUCCAGCUUUCGCCUGGAAGGAGCGAGCGAAAGCUCAGGUAGGUCGCCAGAAACAUGAGGAUCACCCAUGUAAU [(A)''-(M)'-(A)'-(Arg1)-(Arg2)-(M1)-(M2)_Design8] | 36.6 | 82 | 145 | 65.4 | 75.5
11 | CGAUACGUAACUGAUACCAGUGUACUGACAUGAGGAUCACCCAUGUUGGGUUUUGUUGUACACCCUUGGCAGCAGAAUCGUAUCG [AstrosExyTheB#18] | 52.1 | 77.5 | – | – | 59.9
12 | CGAUAUAAGACGGCCGCCACUAUUAUGUAACAAAAUAAACAUGAGGAUCACCCAUGUACAUGGGAUAGGACCGGGUCCAAUAACG [#21 Same State - Tryptophan B] | 98.7 | 148 | 151 | – | –
13 | CGAUGAUGAAGGGAUACCAGAAAUGGUAUUCCUUUAUUUCUUACAUGAGGAUCACCCAUGUUCCCUUGGCAGCUUUUUAUCAUCG [ETHB #6] | 49.3 | 82.6 | – | – | 64.4
14 | CGCACAUGAGGAUCACCCAUGUGAGGGCGUCGAGGACCGGUACGGCCGCCACUCGCAGGACAUGAGGAUCACCCAUGUGCCGCCG [SSTA DOUBLE!!! :-D #4] | 39.8 | 131 | 145 | – | –
15 | CGGUAGGUAGGUCGAUAUCUACCCGUAGAAGGAGCGUAAGAAAAUACAGGUAGGUCGCUACGGAACAUGAGCAUCAGCCAUGUCC [SSArg A #12-Alt Ms2] | 13.9 | 20.6 | 12.1 | 11 | 12.6
16 | CGUACAUGAGGAUCACCCAUGUUACAUGAUACCAGACAUGAAAAUGUCCCUUGGCAGCAUGGCGCUGAUAGGGCGGGAAACCCGA [Zabovresky] | 16.6 | 23.2 | 28.7 | 19.2 | 19.7
